Data from US20110251266, “APTAMER FOR NGF AND USE THEREOF” (Shionogi & Co., Ltd., published 2011).

B1: SEQ38 aptamer (ssRNA)
RNA: GGGAGAACUUCGACCAGAAGAGAAUGAAACUCCACAAAGUACAUAAAACAUAUGUGCGCAUACAUGGAUCCUCA
modifications: 2'-F all pyrimidines
B2: SEQ80 aptamer (ssRNA)
RNA: GGGAGAACUUCGACCAGAAGUGAAAACAACCUCCCAAUAAUGAUCACAGAAAUCCUAUGUGCGCAUACAUGGAUCCUC
modifications: 2'-F all pyrimidines
B3: SEQ75 aptamer (ssRNA)
RNA: GGGAGAACUUCGACCAGAAGUGAAAGAAUCUCCAAAGACAAGAUAAAAACAACCGUAUGUGCGCAUACAUGGAUCCUC
modifications: 2'-F all pyrimidines
B4: SEQ39 aptamer (ssRNA)
RNA: GGGAGAACUUCGACCAGAAGUGUGAAAAGAACCCAAAUAAAACAACAAUGUAUGUGCGCAUACAUGGAUCCUCA
modifications: 2'-F all pyrimidines
B5: SEQ58 aptamer (ssRNA)
RNA: GGGAGAACUUCGACCAGAAGUUUGAAAAGAACCCAAAUACAGAAUAAAUGUAUGUGCGCAUACAUGGAUCCUCA
modifications: 2'-F all pyrimidines
B6: SEQ57 aptamer (ssRNA)
RNA: GGGAGAACUUCGACCAGAAGUUUGAAAAAAACCCAAACACCGAAGCACAAAUAUGUGCGCAUACAUGGAUCCUCA
modifications: 2'-F all pyrimidines
B7: SEQ52 aptamer (ssRNA)
RNA: GGGAGAACUUCGACCAGAAGUUUGAAAGAAACCCAAAUAUACAAAACACUAUGUGCGCAUACAUGGAUCCUCA
modifications: 2'-F all pyrimidines
B8: SEQ83 aptamer (ssRNA)
RNA: GGGAGAACUUCGACCAGAAGUUGAAGCUUGAAAAAAACCCAGGAUUAAACAGACAGUAUGUGCGCAUACAUGGAUCCUC
modifications: 2'-F all pyrimidines
B9: SEQ54 aptamer (ssRNA)
RNA: GGGAGAACUUCGACCAGAAGUCGAAAGUGAAAGAAACUCCAACGAAAGCAUAUGUGCGCAUACAUGGAUCCUCA
modifications: 2'-F all pyrimidines
B10: SEQ68 aptamer (ssRNA)
RNA: GGGAGAACUUCGACCAGAAGUCGAGAGCGAAAGAAACUCCCAAAACACAGUAUGUGCGCAUACAUGGAUCCUCA
modifications: 2'-F all pyrimidines
B11: SEQ79 aptamer (ssRNA)
RNA: GGGAGAACUUCGACCAGAAGGAUAGCCAUGUGGAGGUGAAGACUGAAAUAAACCAUAUGUGCGCAUACAUGGAUCCUC
modifications: 2'-F all pyrimidines
B12: SEQ82 aptamer (ssRNA)
RNA: GGGAGAACUUCGACCAGAAGAGGAUGCUUGUUUGGUUACAAGCUGAAAGAAACCUUAUGUGCGCAUACAUGGAUCCUC
modifications: 2'-F all pyrimidines
B13: SEQ40 aptamer (ssRNA)
RNA: GGGAGAACUUCGACCAGAAGUUUGAAAAAAACCCAGGAAAAUGGAAGACGUAUGUGCGCAUACAUGGAUCCUCA
modifications: 2'-F all pyrimidines
B14: SEQ69 mosaic aptamer (mixed)
DNA: GGGAGAGGCAAGAATAGGGCCCAGCTGAAAAAAACCTGGACGTACACCGTTCGCCGAGCGGGTGAAGAGAAGAGACATTAGGA
modifications: purines ribo, pyrimidines (C,T) deoxy
B15: SEQ76 aptamer (ssRNA)
RNA: GGGAGAACUUCGACCAGAAGGAUAAACGCAUGUAUUUGCAGUAUUAAAAAUGCCUUAUGUGCGCAUACAUGGAUCCUC
modifications: 2'-F all pyrimidines
B16: SEQ51 aptamer (ssRNA)
RNA: GGGAGAACUUCGACCAGAAGUUUGAAAGAAACCCAAAAAAACAACAUAUGAACUAUGUGCGCAUACAUGGAUCCUCA
modifications: 2'-F all pyrimidines
B17: SEQ81 aptamer (ssRNA)
RNA: GGGAGAACUUCGACCAGAAGGAGAUGACUGUGUAACCACAGUAUGAAAUAAACUCUAUGUGCGCAUACAUGGAUCCUC
modifications: 2'-F all pyrimidines
B18: SEQ73 mosaic aptamer (mixed)
DNA: GGGAGAGGCAAGAATAGGGCACTTGAAAAAAACCCAAAGAAAGAATACTTACCCGGCGCGTGAAGAGAAGAGACATTAGGA
modifications: purines ribo, pyrimidines (C,T) deoxy
B19: SEQ77 aptamer (ssRNA)
RNA: GGGAGAACUUCGACCAGAAGUGAAAAAAUCUCCAGUUGCAAGACGAAACAAACCUUAUGUGCGCAUACAUGGAUCCUC
modifications: 2'-F all pyrimidines
B20: SEQ74 mosaic aptamer (mixed)
DNA: GGGAGAGGCAAGAATAGGGCATAGTGTAGACCCCTCTCAAGATACCCCATGAATTGCCCCGTGAAGAGAAGAGACATTAGGA
modifications: purines ribo, pyrimidines (C,T) deoxy
B21: SEQ72 mosaic aptamer (mixed)
DNA: GGGAGAGGCAAGAATAGGGCTGGATGGGCAGTAACCTGAAAAAAACCACCCACCTCTACCGTGAAGAGAAGAGACATTAGGA
modifications: purines ribo, pyrimidines (C,T) deoxy
B22: SEQ49 aptamer (ssRNA)
RNA: GGGAGAACUUCGACCAGAAGUGAAAGAAACUCCCAAGACGGUAACGAAAGUAUGUGCGCAUACAUGGAUCCUCA
modifications: 2'-F all pyrimidines
B23: SEQ78 aptamer (ssRNA)
RNA: GGGAGAACUUCGACCAGAAGUGUGUAUUGUUCAGGGUGUGCCCAGCCUAUAACCAUAUGUGCGCAUACAUGGAUCCUC
modifications: 2'-F all pyrimidines
B24: SEQ70 mosaic aptamer (mixed)
DNA: GGGAGAGGCAAGAATAGGGCTGGAAATAGAACCGCGCTGTCTTCATTAAGCCGCCCAACGGTGAAGAGAAGAGACATTAGGA
modifications: purines ribo, pyrimidines (C,T) deoxy
B25: SEQ37 aptamer (ssRNA)
RNA: GGGAGAACUUCGACCAGAAGUUUGAAAGAAACCCAAAGGUGAAACAACAAUAUGUGCGCAUACAUGGAUCCUCA
modifications: 2'-F all pyrimidines
B26: SEQ42 aptamer (ssRNA)
RNA: GGGAGAACUUCGACCAGAAGUUUGAAAAAAACCCAAAAGAGCAGCAGAGAUAUGUGCGCAUACAUGGAUCCUCA
modifications: 2'-F all pyrimidines
B27: SEQ64 aptamer (ssRNA)
RNA: GGGAGAACUUCGACCAGAAGUUUGAAAGAAACCCAAAACAUUAGCACACAUAUGUGCGCAUACAUGGAUCCUCA
modifications: 2'-F all pyrimidines
B28: SEQ41 aptamer (ssRNA)
RNA: GGGAGAACUUCGACCAGAAGUUUGAAAGGAACCCAAAGCGAAACAAAACGUAUGUGCGCAUACAUGGAUCCUCA
modifications: 2'-F all pyrimidines
B29: SEQ62 aptamer (ssRNA)
RNA: GGGAGAACUUCGACCAGAAGUUUGAAAGAAACCCAAAUUAAAGUGAACAGUAUGUGCGCAUACAUGGAUCCUCA
modifications: 2'-F all pyrimidines
B30: SEQ71 mosaic aptamer (mixed)
DNA: GGGAGAGGCAAGAATAGGGCACTTGAAAAAAACCCAAATTTACCGTCTTCAGCGTCGGGTGTGAAGAGAAGAGACATTAGGA
modifications: purines ribo, pyrimidines (C,T) deoxy
B31: SEQ67 aptamer (ssRNA)
RNA: GGGAGAACUUCGACCAGAAGUCGAUAACGAACAAAACUCCCAAAGGAAUAUAUGUGCGCAUACAUGGAUCCUCA
modifications: 2'-F all pyrimidines

Molecular target: beta-NGF (nerve growth factor) (Homo sapiens, UniProt P01138 P01138:122-241)
Sequence (P01138 122-241, one chain of several): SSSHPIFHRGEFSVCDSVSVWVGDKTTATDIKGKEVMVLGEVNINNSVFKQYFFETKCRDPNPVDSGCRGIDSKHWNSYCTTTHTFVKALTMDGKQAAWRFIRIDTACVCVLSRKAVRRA
Test: SPR; blocks NGF-TrkA and NGF-P75
Settings: tags: R&D Systems; chain copies: 2
Protocol: As directed in BIAcore Company's protocol, Protein A (21181, PIERCE) was immobilized on a CM5 sensor chip. About 1100 RU of human Trk A-Fc fused with the Fc portion of IgG (175-TK, R&D systems) was immobilized thereon. As the analyte, a mixture of NGF (0.1 μM) and each aptamer (0.33 μM) was injected after being allowed to stand for 30 minutes. […] When NGF binds stronger to a receptor than an aptamer, the aptamer may be removed and NGF may bind to the receptor. […] Using the binding amount of NGF and NGF receptor without an aptamer as 100, the binding amount of NGF and NGF receptor added with an aptamer was determined as a correction value. Here, the binding amount is the RU value at the peak top of the sensorgram of BIAcore (RU value immediately after completion of NGF injection). […] A similar experiment was performed for another receptor P75 (p75-Fc; R&D systems).

activity, ≥ 60 % inhibition:
B1
B2
B3
B4
B5
GGGAAGCCUGUGGAGCUGCAGGAUGAAAAAAACCCAAA (ssRNA, 2'-F all pyrimidines) [SEQ35 aptamer]
B6
B7
B8
B9
B10
B11
B12
B13
B14
B15
B16
B17
B18
B19
B20
B21
B22
B23
B24
B25
B26
B27
B28
B29
B30
B31
